Patent US20210356479A1 (BLOODWORKS, published 2021)

T1: human Kell glycoprotein, K form (KEL1) (human, UniProt P23276 1-732)
T1 construct: whole, on cells; On human K/K or K+k+ RBCs and on RBCs of K transgenic mice; also called K antigen; K variant
T1 sequence (looked up): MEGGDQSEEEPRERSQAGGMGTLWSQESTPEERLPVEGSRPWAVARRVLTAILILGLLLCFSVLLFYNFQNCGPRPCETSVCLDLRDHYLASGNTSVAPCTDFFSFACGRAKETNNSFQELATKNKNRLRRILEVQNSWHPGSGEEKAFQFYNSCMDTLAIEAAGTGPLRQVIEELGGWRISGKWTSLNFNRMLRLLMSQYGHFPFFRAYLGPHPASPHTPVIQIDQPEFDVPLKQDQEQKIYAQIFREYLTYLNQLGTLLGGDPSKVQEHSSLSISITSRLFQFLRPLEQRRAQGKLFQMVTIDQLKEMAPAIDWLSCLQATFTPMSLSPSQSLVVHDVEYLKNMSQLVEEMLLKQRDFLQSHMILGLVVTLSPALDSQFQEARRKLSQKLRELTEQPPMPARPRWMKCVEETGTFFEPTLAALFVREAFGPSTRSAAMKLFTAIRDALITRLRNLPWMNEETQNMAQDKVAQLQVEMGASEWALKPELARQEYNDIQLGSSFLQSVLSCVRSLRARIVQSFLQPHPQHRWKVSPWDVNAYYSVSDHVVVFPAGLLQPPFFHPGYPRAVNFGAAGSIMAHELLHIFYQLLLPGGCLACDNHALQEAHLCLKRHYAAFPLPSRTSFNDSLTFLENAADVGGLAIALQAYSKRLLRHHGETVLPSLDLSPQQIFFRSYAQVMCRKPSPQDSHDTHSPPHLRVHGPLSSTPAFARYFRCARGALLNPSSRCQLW

T2: human Kell glycoprotein, k form (KEL2) (human, UniProt P23276 1-732)
T2 construct: whole, on cells; On human k/k or K-k+ RBCs; also called k antigen
T2 sequence (looked up): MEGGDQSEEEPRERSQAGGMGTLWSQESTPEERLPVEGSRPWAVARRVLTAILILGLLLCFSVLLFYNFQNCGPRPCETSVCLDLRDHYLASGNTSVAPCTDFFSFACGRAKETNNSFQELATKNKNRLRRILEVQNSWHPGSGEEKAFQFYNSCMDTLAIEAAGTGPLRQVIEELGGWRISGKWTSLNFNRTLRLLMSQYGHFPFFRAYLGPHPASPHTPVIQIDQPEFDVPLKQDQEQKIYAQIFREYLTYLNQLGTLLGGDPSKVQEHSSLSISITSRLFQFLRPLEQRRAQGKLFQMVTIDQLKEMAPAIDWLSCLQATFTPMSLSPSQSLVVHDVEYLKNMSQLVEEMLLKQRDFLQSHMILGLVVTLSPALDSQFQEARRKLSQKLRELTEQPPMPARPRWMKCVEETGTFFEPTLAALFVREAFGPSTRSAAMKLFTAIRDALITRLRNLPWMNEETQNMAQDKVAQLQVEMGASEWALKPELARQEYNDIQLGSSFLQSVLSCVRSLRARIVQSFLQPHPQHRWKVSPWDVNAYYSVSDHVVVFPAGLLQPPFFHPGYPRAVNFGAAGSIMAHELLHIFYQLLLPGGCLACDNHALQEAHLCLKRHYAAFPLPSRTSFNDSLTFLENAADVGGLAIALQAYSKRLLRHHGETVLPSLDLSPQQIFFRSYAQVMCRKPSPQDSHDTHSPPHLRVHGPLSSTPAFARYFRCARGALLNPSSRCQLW


Key:
[1] = target: T1, human Kell glycoprotein, K form (KEL1); assay: flow cytometry on human K+k+ RBCs, detected with polyclonal anti-IgG
Protocol: Flow cytometry consisted of incubating test RBCs with PUMA 1 variants, followed by the anti-IgG being evaluated, followed by a detection reagent. Test RBCs included RBCs from K mice, wild-type mice, and reagent RBCs from humans with the phenotype of (K+k+) or (K−k+). Test RBCs were resuspended in 50 microliters of supernatants of PUMA 1 isoallotypes; in some cases a 1/10 dilution in phosphate buffered saline (PBS) was used. For purified IgG1-IgG4 PUMA 1, the antibodies were diluted in PBS at the indicated concentrations. The tested anti-IgG reagents were used undiluted. Detection reagents consisted of donkey anti-rabbit conjugated to phycoerythrin at a 1/200 dilution (Affymetrix cat #12-4739-81, Santa Clara, Calif.), goat anti-mouse IgM conjugated to allophycocyanin at a 1/100 dilution (BD Biosciences, cat #550826, San Jose, Calif.), and goat anti-mouse Igs conjugated to allophycocyanin at a 1/100 dilution (SouthernBiotech cat #1020-11s, Birmingham, Ala.). All anti-IgG subclass antibodies were conjugated to phycoerythrin, were purchased from SouthernBiotech (catalog numbers 9056-09, 9070-09, 9210-09, 9200-09), and were used at a dilution of 1.200. All incubations were performed for 30 min at room temperature, followed by three washes with PBS. All flow cytometry was performed on an Accuri 4 color cytometer (BD biosciences, San Jose Calif.) and all data was analyzed with Flo-Jo version 10.
To assess the sensitivity of commercially available anti-IgG preparations for different human IgG subclasses bound to RBCs, K+k+ RBCs were first incubated with PUMA 1 of the different human IgG subclasses, followed by incubation with anti-IgG. Treated RBCs were then stained with a fluorescently labeled antibody specific for the species in which the anti-IgG was generated (and non-reactive with human IgG). For each anti-IgG, the same secondary antibody was used to detect binding of the anti-IgG to each human PUMA 1 IgG subclass. To assess relative sensitivity, titrations of each PUMA 1 IgG subclass were carried out and samples were analyzed by flow cytometry using mean fluorescent intensity (MFI) to quantify staining (FIGS. 28A, 28B).

[2] = target: T2, human Kell glycoprotein, k form (KEL2); assay: flow cytometry on human K-k+ RBCs

Binder | binding result [1] | binding result [2]
PUMA 1 human IgG3-09 isoallotype (antibody, Isoallotype named in CLM-00007; not shown: human IgG3 heavy chain constant region, isoallotype IGHG3*09; human kappa light chain constant region (vector pFUSE2-CLIg-hk)) heavy: EVQLQQSGPELVKPGASVKMSCKASGYTFTDYYMKWVKQSHGKSLEWIGDLNPNNGDTFYNQKFKGKATLTVDKSSSTAYIQLNSLTSEDSAVYYCAREAGSSFGSSCNYWGQGTTLTVS light: SVVMTQTPKFLLVSAGDRVTITCKASQTVSKDVAWYQQQPGQSPKLLIYYASNRYTGVPDRFTGSGYGTDFTFTISTVQAEDLAVYFCQQDYSSPYTFGGGTKLEIK | binds | no binding
PUMA 1 human IgG3-16 isoallotype (antibody, Isoallotype named in CLM-00007; not shown: human IgG3 heavy chain constant region, isoallotype IGHG3*16; human kappa light chain constant region (vector pFUSE2-CLIg-hk)) heavy: EVQLQQSGPELVKPGASVKMSCKASGYTFTDYYMKWVKQSHGKSLEWIGDLNPNNGDTFYNQKFKGKATLTVDKSSSTAYIQLNSLTSEDSAVYYCAREAGSSFGSSCNYWGQGTTLTVS light: SVVMTQTPKFLLVSAGDRVTITCKASQTVSKDVAWYQQQPGQSPKLLIYYASNRYTGVPDRFTGSGYGTDFTFTISTVQAEDLAVYFCQQDYSSPYTFGGGTKLEIK | binds | no binding
PUMA 1 human IgG3-19 isoallotype (antibody, Isoallotype named in CLM-00007; not shown: human IgG3 heavy chain constant region, isoallotype IGHG3*19; human kappa light chain constant region (vector pFUSE2-CLIg-hk)) heavy: EVQLQQSGPELVKPGASVKMSCKASGYTFTDYYMKWVKQSHGKSLEWIGDLNPNNGDTFYNQKFKGKATLTVDKSSSTAYIQLNSLTSEDSAVYYCAREAGSSFGSSCNYWGQGTTLTVS light: SVVMTQTPKFLLVSAGDRVTITCKASQTVSKDVAWYQQQPGQSPKLLIYYASNRYTGVPDRFTGSGYGTDFTFTISTVQAEDLAVYFCQQDYSSPYTFGGGTKLEIK | binds | no binding
PUMA 1 human IgG3-13 isoallotype (antibody, also called PUMA1-IgG3-13; not shown: human kappa light chain constant region (vector pFUSE2-CLIg-hk)) heavy: EVQLQQSGPELVKPGASVKMSCKASGYTFTDYYMKWVKQSHGKSLEWIGDLNPNNGDTFYNQKFKGKATLTVDKSSSTAYIQLNSLTSEDSAVYYCAREAGSSFGSSCNYWGQGTTLTVS light: SVVMTQTPKFLLVSAGDRVTITCKASQTVSKDVAWYQQQPGQSPKLLIYYASNRYTGVPDRFTGSGYGTDFTFTISTVQAEDLAVYFCQQDYSSPYTFGGGTKLEIK | binds | no binding
PUMA 1 human IgG3-11 isoallotype (antibody, Isoallotype named in CLM-00007; not shown: human IgG3 heavy chain constant region, isoallotype IGHG3*11; human kappa light chain constant region (vector pFUSE2-CLIg-hk)) heavy: EVQLQQSGPELVKPGASVKMSCKASGYTFTDYYMKWVKQSHGKSLEWIGDLNPNNGDTFYNQKFKGKATLTVDKSSSTAYIQLNSLTSEDSAVYYCAREAGSSFGSSCNYWGQGTTLTVS light: SVVMTQTPKFLLVSAGDRVTITCKASQTVSKDVAWYQQQPGQSPKLLIYYASNRYTGVPDRFTGSGYGTDFTFTISTVQAEDLAVYFCQQDYSSPYTFGGGTKLEIK | binds | no binding
PUMA 1 human IgG3-18 isoallotype (antibody, Isoallotype named in CLM-00007; not shown: human IgG3 heavy chain constant region, isoallotype IGHG3*18; human kappa light chain constant region (vector pFUSE2-CLIg-hk)) heavy: EVQLQQSGPELVKPGASVKMSCKASGYTFTDYYMKWVKQSHGKSLEWIGDLNPNNGDTFYNQKFKGKATLTVDKSSSTAYIQLNSLTSEDSAVYYCAREAGSSFGSSCNYWGQGTTLTVS light: SVVMTQTPKFLLVSAGDRVTITCKASQTVSKDVAWYQQQPGQSPKLLIYYASNRYTGVPDRFTGSGYGTDFTFTISTVQAEDLAVYFCQQDYSSPYTFGGGTKLEIK | binds | no binding
PUMA 1 human IgG3-17 isoallotype (antibody, Isoallotype named in CLM-00007; not shown: human IgG3 heavy chain constant region, isoallotype IGHG3*17; human kappa light chain constant region (vector pFUSE2-CLIg-hk)) heavy: EVQLQQSGPELVKPGASVKMSCKASGYTFTDYYMKWVKQSHGKSLEWIGDLNPNNGDTFYNQKFKGKATLTVDKSSSTAYIQLNSLTSEDSAVYYCAREAGSSFGSSCNYWGQGTTLTVS light: SVVMTQTPKFLLVSAGDRVTITCKASQTVSKDVAWYQQQPGQSPKLLIYYASNRYTGVPDRFTGSGYGTDFTFTISTVQAEDLAVYFCQQDYSSPYTFGGGTKLEIK | binds | no binding

The next lines start with the values.

binding result [1] | binding result [2] | Binder
binds | no binding | PUMA 1 human IgG3-12 isoallotype (antibody, Isoallotype named in CLM-00007; not shown: human IgG3 heavy chain constant region, isoallotype IGHG3*12; human kappa light chain constant region (vector pFUSE2-CLIg-hk)) heavy: EVQLQQSGPELVKPGASVKMSCKASGYTFTDYYMKWVKQSHGKSLEWIGDLNPNNGDTFYNQKFKGKATLTVDKSSSTAYIQLNSLTSEDSAVYYCAREAGSSFGSSCNYWGQGTTLTVS light: SVVMTQTPKFLLVSAGDRVTITCKASQTVSKDVAWYQQQPGQSPKLLIYYASNRYTGVPDRFTGSGYGTDFTFTISTVQAEDLAVYFCQQDYSSPYTFGGGTKLEIK
binds | no binding | PUMA 1 human IgG4-02 isoallotype (antibody, not shown: human IgG4 heavy chain constant region, isoallotype IGHG4*02; human kappa light chain constant region (vector pFUSE2-CLIg-hk)) heavy: EVQLQQSGPELVKPGASVKMSCKASGYTFTDYYMKWVKQSHGKSLEWIGDLNPNNGDTFYNQKFKGKATLTVDKSSSTAYIQLNSLTSEDSAVYYCAREAGSSFGSSCNYWGQGTTLTVS light: SVVMTQTPKFLLVSAGDRVTITCKASQTVSKDVAWYQQQPGQSPKLLIYYASNRYTGVPDRFTGSGYGTDFTFTISTVQAEDLAVYFCQQDYSSPYTFGGGTKLEIK
binds | no binding | PUMA 1 human IgG4-03 isoallotype (antibody, not shown: human IgG4 heavy chain constant region, isoallotype IGHG4*03; human kappa light chain constant region (vector pFUSE2-CLIg-hk)) heavy: EVQLQQSGPELVKPGASVKMSCKASGYTFTDYYMKWVKQSHGKSLEWIGDLNPNNGDTFYNQKFKGKATLTVDKSSSTAYIQLNSLTSEDSAVYYCAREAGSSFGSSCNYWGQGTTLTVS light: SVVMTQTPKFLLVSAGDRVTITCKASQTVSKDVAWYQQQPGQSPKLLIYYASNRYTGVPDRFTGSGYGTDFTFTISTVQAEDLAVYFCQQDYSSPYTFGGGTKLEIK
binds | no binding | PUMA 1 human IgG3-14 isoallotype (antibody, Isoallotype named in CLM-00007; not shown: human IgG3 heavy chain constant region, isoallotype IGHG3*14; human kappa light chain constant region (vector pFUSE2-CLIg-hk)) heavy: EVQLQQSGPELVKPGASVKMSCKASGYTFTDYYMKWVKQSHGKSLEWIGDLNPNNGDTFYNQKFKGKATLTVDKSSSTAYIQLNSLTSEDSAVYYCAREAGSSFGSSCNYWGQGTTLTVS light: SVVMTQTPKFLLVSAGDRVTITCKASQTVSKDVAWYQQQPGQSPKLLIYYASNRYTGVPDRFTGSGYGTDFTFTISTVQAEDLAVYFCQQDYSSPYTFGGGTKLEIK
binds | no binding | PUMA 1 human IgG3-15 isoallotype (antibody, Isoallotype named in CLM-00007; not shown: human IgG3 heavy chain constant region, isoallotype IGHG3*15; human kappa light chain constant region (vector pFUSE2-CLIg-hk)) heavy: EVQLQQSGPELVKPGASVKMSCKASGYTFTDYYMKWVKQSHGKSLEWIGDLNPNNGDTFYNQKFKGKATLTVDKSSSTAYIQLNSLTSEDSAVYYCAREAGSSFGSSCNYWGQGTTLTVS light: SVVMTQTPKFLLVSAGDRVTITCKASQTVSKDVAWYQQQPGQSPKLLIYYASNRYTGVPDRFTGSGYGTDFTFTISTVQAEDLAVYFCQQDYSSPYTFGGGTKLEIK
